In article PMC2121072 (The Journal of Cell Biology, 1996):
Values joined by “and” are separate entries in the source; they are usually repeats but may differ in a detail not shown here. Equal entries are not always repeated. Where two headings read alike, the source gives them in different places. Where no end group is shown, it is not given here. The star is where a group is joined. Biotin = O=C1N[C@H]2[C@H](CS[C@H]2CCCCC(=O)*)N1

Legend:
[1] = target: T1, GST-PDZ1+2+3 fusion protein of hDlg (human, UniProt Q12959 201-584); experiment: SPR
[2] = target: T1, GST-PDZ1+2+3 fusion protein of hDlg; experiment: SPR; remark: listed apart in the source
[3] = target: PDZ1+2 (A) module of hDlg (human, UniProt Q12959 205-411); experiment: SPR
SEC = target: the molecule itself; experiment: SEC

T1 sequence (Q12959 201-584): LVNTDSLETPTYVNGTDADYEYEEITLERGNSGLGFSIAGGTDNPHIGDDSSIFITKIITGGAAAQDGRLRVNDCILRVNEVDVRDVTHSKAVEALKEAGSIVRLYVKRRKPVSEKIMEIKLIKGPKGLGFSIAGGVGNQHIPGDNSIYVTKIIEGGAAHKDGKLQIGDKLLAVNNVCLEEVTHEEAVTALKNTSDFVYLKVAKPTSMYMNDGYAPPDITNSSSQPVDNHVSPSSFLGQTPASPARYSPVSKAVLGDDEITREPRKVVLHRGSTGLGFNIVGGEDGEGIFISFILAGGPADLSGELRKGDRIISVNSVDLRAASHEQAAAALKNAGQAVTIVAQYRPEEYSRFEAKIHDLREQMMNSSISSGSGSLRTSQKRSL
PDZ1+2 (A) module of hDlg, sequence (Q12959 205-411): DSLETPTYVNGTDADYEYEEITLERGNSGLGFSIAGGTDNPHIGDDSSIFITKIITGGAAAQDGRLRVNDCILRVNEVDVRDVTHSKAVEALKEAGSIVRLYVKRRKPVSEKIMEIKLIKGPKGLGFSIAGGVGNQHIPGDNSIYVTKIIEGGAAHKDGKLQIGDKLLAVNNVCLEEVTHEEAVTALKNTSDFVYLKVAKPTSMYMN

B1: biotinylated synthetic peptide of the COOH terminus of the Kv1.4 potassium channel (peptide)
peptide: Biotin-SGSGDKNNCSNAKAVETDV
**Q.** Which results are given for B1?
**A.** Kd [1]: 160 nM; koff [1]: 0.024 s⁻¹; kon [1]: 150000 M⁻¹ s⁻¹; Kd [2]: 11 nM; koff [2]: 0.002 s⁻¹; kon [2]: 180000 M⁻¹ s⁻¹; Kd [3]: 33 ± 5 nM; koff [3]: 0.0149 s⁻¹ and 0.0135 s⁻¹; kon [3]: 413000 M⁻¹ s⁻¹

B2: PDZ3 (A) domain of hDlg (domain or fragment, human, UniProt Q12959 457-558, looked up)
chain: DDEITREPRKVVLHRGSTGLGFNIVGGEDGEGIFISFILAGGPADLSGELRKGDRIISVNSVDLRAASHEQAAAALKNAGQAVTIVAQYRPEEYSRFEAKIH
**Q.** How did the “stoichiometry N” value (SEC) turn out when B2 was run?
**A.** 2
